Results from article doi:10.1101/2021.09.29.462438.

Biological target: N-terminal soluble domain of Bacteroides fragilis FeoAB fusion protein (BfNFeoAB) (Bacteroides fragilis)
Experiment: SEC

**Q.** For “N-terminal soluble domain of Bacteroides fragilis FeoAB fusion protein (BfNFeoAB) (domain or fragment)”, which stoichiometry N is on record?
**A.** 3
